Experimental findings from publication PMC11233575, “Unlocking the function promiscuity of old yellow enzyme to catalyze asymmetric Morita-Baylis-Hillman reaction” (Nature Communications, 2024) are described below.

Substrate in data set [1]: O=C1C=CCC1
Put plainly: initial velocity of MBH adduct formation by HPLC, Michaelis-Menten fit. It is filed as biochemical, Geobacillus kaustophilus. The conditions noted are these: 4 mM 4-nitrobenzaldehyde, PBS pH 10.0, 3% methanol, 25 °C. An excerpt:
(§1) initial velocity of MBH adduct formation by HPLC, Michaelis-Menten fit on GkOYE

Substrate in data set [2]: O=Cc1ccc([N+](=O)[O-])cc1
Described as above. It is filed as biochemical, Geobacillus kaustophilus. As to conditions: 5 mM 2-cyclopenten-1-one, PBS pH 10.0, 3% methanol, 25 °C.
Text: as §1

Data set [3] concerns the molecule itself. Put plainly: crystal structure; apo-GkOYE.8 at 15 mg/mL, hanging drop, 0.1 M glycine pH 9.0, 25% (w/v) polyethylene glycol 2000, 15% (w/v) glycerol, 20 °C; 3.11 Å.
[4] abbreviates: GkOYE.8, MBH reaction, no FMN, covalent intermediate at C26.

B1: GkOYE.8 (GkOYE^Q102A/Y169F/R215A/R308A) (enzyme, Geobacillus kaustophilus)
chain: MNTMLFSPYTIRGLTLKNRIVMSPMCMYSCDTKDGAVRTWHKIHYPARAVGQVGLIIVEATGVTPQGRISERDLGIWSDDHIAGLRELVGLVKEHGAAIGIALAHAGRKSQVPGEIIAPSAVPFDDSSPTPKEMTKADIEETVQAFQNGARRAKEAGFDVIEIHAAHGFLINEFLSPLSNRRQDEYGGSPENRYRFLGEVIDAVREVWDGPLFVAISASDYHPDGLTAKDYVPYAKRMKEQGVDLVDVSSGAIVPARMNVYPGYQVPFAELIRREADIPTGAVGLITSGWQAEEILQNGRADLVFLGAELLRNPYWPYAAARELGAKISAPVQYERGWRF
notes: FMN-free (apo); Expressed from the plasmid pET28a-GkOYE.8; also called apo-GkOYE.8; source: E. coli BL21(DE3), purified (Strep-Tactin column; HisTrap HP column for crystallization)
The term Km denotes the substrate concentration at which the rate is half of its maximum. As a reminder, the kcat is the number of substrate molecules converted per active site and unit of time at saturation. What is called kcat/Km is the turnover number divided by the Michaelis constant. The term stoichiometry N denotes a count of units in the complex or per binding partner. Consider B1, for which, in data set [1] (setting [4]), the Km came out at 4.28 mM, the kcat was found to be 0.000178 s⁻¹ and the kcat/Km came out at 0.0417 M⁻¹ s⁻¹. In data set [2] (GkOYE.8, MBH reaction, no FMN), the Km stood at 15.98 mM, the turnover number (kcat) was 0.000458 s⁻¹ and the kcat/Km came to 0.0278 M⁻¹ s⁻¹. For the same protein, the “stoichiometry N” value in data set [3] was 2.

B2: GkOYE (Geobacillus kaustophilus HTA426; Q102A/R215A/R308A/Y169W) (protein)
chain: MNTMLFSPYTIRGLTLKNRIVMSPMCMYSCDTKDGAVRTWHKIHYPARAVGQVGLIIVEATGVTPQGRISERDLGIWSDDHIAGLRELVGLVKEHGAAIGIALAHAGRKSQVPGEIIAPSAVPFDDSSPTPKEMTKADIEETVQAFQNGARRAKEAGFDVIEIHAAHGWLINEFLSPLSNRRQDEYGGSPENRYRFLGEVIDAVREVWDGPLFVAISASDYHPDGLTAKDYVPYAKRMKEQGVDLVDVSSGAIVPARMNVYPGYQVPFAELIRREADIPTGAVGLITSGWQAEEILQNGRADLVFLGAELLRNPYWPYAAARELGAKISAPVQYERGWRF
notes: recombinant, Strep-tagged, pET28a, E. coli BL21(DE3); Strep-Tactin purified; dimer in crystal
For the protein B2, in data set [1] (GkOYE.12, MBH reaction), the Km is recorded as 4.50 mM, the kcat is 0.000167 s⁻¹ and the kcat/Km came to 0.0361 M⁻¹ s⁻¹. In data set [2] (GkOYE.12, MBH reaction), the Km is recorded as 17.28 mM, the kcat was found to be 0.000422 s⁻¹ and the kcat/Km was 0.025 M⁻¹ s⁻¹.

B3: GkOYE (Geobacillus kaustophilus HTA426; G62W/Q102A/R215A/R308A/Y169F) (protein)
chain: MNTMLFSPYTIRGLTLKNRIVMSPMCMYSCDTKDGAVRTWHKIHYPARAVGQVGLIIVEATWVTPQGRISERDLGIWSDDHIAGLRELVGLVKEHGAAIGIALAHAGRKSQVPGEIIAPSAVPFDDSSPTPKEMTKADIEETVQAFQNGARRAKEAGFDVIEIHAAHGFLINEFLSPLSNRRQDEYGGSPENRYRFLGEVIDAVREVWDGPLFVAISASDYHPDGLTAKDYVPYAKRMKEQGVDLVDVSSGAIVPARMNVYPGYQVPFAELIRREADIPTGAVGLITSGWQAEEILQNGRADLVFLGAELLRNPYWPYAAARELGAKISAPVQYERGWRF
notes: as for B2
B3: in data set [1] (GkOYE.9, MBH reaction), the Km is listed as 2.00 mM, the kcat came out at 0.000181 s⁻¹ and the kcat/Km worked out at 0.0917 M⁻¹ s⁻¹. In data set [2] (GkOYE.9, MBH reaction), the Km is given as 12.44 mM, the kcat was determined as 0.000442 s⁻¹ and the kcat/Km was 0.0361 M⁻¹ s⁻¹.

B4: GkOYE (Geobacillus kaustophilus HTA426; D247I/G62W/H167A/Q102A/R215A/R308A/Y169F) (protein)
chain: MNTMLFSPYTIRGLTLKNRIVMSPMCMYSCDTKDGAVRTWHKIHYPARAVGQVGLIIVEATWVTPQGRISERDLGIWSDDHIAGLRELVGLVKEHGAAIGIALAHAGRKSQVPGEIIAPSAVPFDDSSPTPKEMTKADIEETVQAFQNGARRAKEAGFDVIEIHAAAGFLINEFLSPLSNRRQDEYGGSPENRYRFLGEVIDAVREVWDGPLFVAISASDYHPDGLTAKDYVPYAKRMKEQGVDLVIVSSGAIVPARMNVYPGYQVPFAELIRREADIPTGAVGLITSGWQAEEILQNGRADLVFLGAELLRNPYWPYAAARELGAKISAPVQYERGWRF
notes: as for B2
On to B4, for which, in data set [1] (GkOYE.11, MBH reaction), the Km is on record as 1.70 mM, the kcat was found to be 0.00019 s⁻¹ and the kcat/Km stood at 0.114 M⁻¹ s⁻¹. Besides, in data set [2] (GkOYE.11, MBH reaction), the Km is recorded as 11.22 mM, the kcat is 0.000478 s⁻¹ and the kcat/Km was determined as 0.0417 M⁻¹ s⁻¹.

B5: GkOYE (Geobacillus kaustophilus HTA426; G62N/Q102A/R215A/R308A/Y169W) (protein)
chain: MNTMLFSPYTIRGLTLKNRIVMSPMCMYSCDTKDGAVRTWHKIHYPARAVGQVGLIIVEATNVTPQGRISERDLGIWSDDHIAGLRELVGLVKEHGAAIGIALAHAGRKSQVPGEIIAPSAVPFDDSSPTPKEMTKADIEETVQAFQNGARRAKEAGFDVIEIHAAHGWLINEFLSPLSNRRQDEYGGSPENRYRFLGEVIDAVREVWDGPLFVAISASDYHPDGLTAKDYVPYAKRMKEQGVDLVDVSSGAIVPARMNVYPGYQVPFAELIRREADIPTGAVGLITSGWQAEEILQNGRADLVFLGAELLRNPYWPYAAARELGAKISAPVQYERGWRF
notes: as for B2
For B5, in data set [1] (GkOYE.13, MBH reaction), the Km came out at 1.91 mM, the kcat worked out at 0.000189 s⁻¹ and the kcat/Km was 0.1 M⁻¹ s⁻¹. Also, in data set [2] (GkOYE.13, MBH reaction), the Km is 12.10 mM, the kcat was determined as 0.000461 s⁻¹ and the kcat/Km worked out at 0.0389 M⁻¹ s⁻¹.
